Reference: patent US20040152179A1 (US Dept. of Health and Human Services, published 2004)

What was measured:
[1] = target: diphtheria toxin receptor on human cell lines (U251, HeLa, Jurkat) (human) (UniProt Q99075); experiment: cell-based or functional assay
[2] = target: diphtheria toxin receptor on Cos-7 cells (monkey kidney) (monkey) (UniProt Q09118); experiment: cold competitor against I^125-labelled DT on Cos-7 cells; reference native DT
[3] = target: T1, DTR (diphtheria toxin receptor binding domain, codons 384-535 of DT), control protein (UniProt P00588 416-567); experiment: competition with I^125-labelled DT on Cos-7 cells
T1 construct: range 384-535

| Molecule | Apoptosis Prevention (%), HeLa cells, 0.2 uM STS, 2.17 uM Bcl-xL-DTR, 10 hrs [1] | fold lower affinity than native DT [2] | binding result [3] |
| --- | --- | --- | --- |
| Bcl-xL-DTR | 32.4% | 3 fold | – |
| diphtheria toxin receptor on Cos-7 cells (monkey kidney) (receptor, whole, on cells; also called DT receptor) DLQEADLDLLRVTLSSKPQALATPSKEEHGKRKKKGKGLGKKRDPCLRKYKDFCIHGECKYVKELRAPSCICHPGYHGERCHGLSL | – | – | no binding |
